Measured values reported in patent publication US6653127B1, “Single-chain recombinant complexes of hepatitis C virus NS3 protease and NS4A cofactor peptide” (Schering Corporation, priority 1997, dated 2003).
Residue numbers refer to the chain shown, from its start. Names may count otherwise.

B1: His-NS31-181 + NS4A Peptide (non-covalent complex) (protein)
chain 1: MAPITAYSQQTRGLLGCIITSLTGRDKNQVEGEVQVVSTATQSFLATCVNGVCWTVYHGAGSKTLAGPKGPITQMYTNVDQDLVGWQAPPGARSLTPCTCGSSDLYLVTRHADVIPVRRRGDSRGSLLSPRPVSYLKGSSGGPLLCPSGHAVGIFRAAVCTRGVAKAVDFVPVESMETTMR
chain 2: KKGSVVIVGRIVLSGKPAIIPKK
B2: His-NS4A21-32-GSGS-NS33-181/I17K (protein)
chain: MGSSHHHHHHSSGLVPRGSHMGSVVIVGRIILSGSGSITAYSQQTRGLLGCKITSLTGRDKNQVEGEVQVVSTATQSFLATCVNGVCWTVYHGAGSKTLAGPKGPITQMYTNVDQDLVGWQAPPGARSLTPCTCGSSDLYLVTRHADVIPVRRRGDSRGSLLSPRPVSYLKGSSGGPLLCPSGHAVGIFRAAVCTRGVAKAVDFVPVESMETTMRS
B3: His-NS4A21-32-GSGS-NS33-181/I17K,I18K (protein)
chain: B2 chain with I53K
B4: His-NS4A21-32-GSGS-NS33-181/I18K (protein)
chain: B2 chain with K52I, I53K
B5: His-NS4A21-32-GSGS-NS33-181 (protein)
chain: B2 chain with K52I
B6: NS31-631-NS4A1-54 (non-covalent full-length NS3 protease / NS4A complex) (protein)
chain 1: MAPITAYSQQTRGLLGCIITSLTGRDKNQVEGEVQVVSTATQSFLATCVNGVCWTVYHGAGSKTLAGPKGPITQMYTNVDQDLVGWQAPPGARSLTPCTCGSSDLYLVTRHADVIPVRRRGDSRGSLLSPRPVSYLKGSSGGPLLCPSGHAVGIFRAAVCTRGVAKAVDFVPVESMETTMRSPVFTDNSSPPAVPQSFQVAHLHAPTGSGKSTKVPAAYAAQGYKVLVLNPSVAATLGFGAYMSKAHGIDPNIRTGVRTITTGAPVTYSTYGKFLADGGCSGGAYDIIICDECHSTDSTTILGIGTVLDQAETAGARLVVLATATPPGSVTVPHPNIEEVALSNTGEIPFYGKAIPIEAIRGGRHLIFCHSKKKCDELAAKLSGLGINAVAYYRGLDVSVIPTIGDVVVVATDALMTGYTGDFDSVIDCNTCVTQTVDFSLDPTFTIETTTVPQDAVSRSQRRGRTGRGRRGIYRFVTPGERPSGMFDSSVLCECYDAGCAWYELTPAETSVRLRAYLNTPGLPVCQDHLEFWESVFTGLTHIDAHFLSQTKQAGDNFPYLVAYQATVCARAQAPPPSWDQMWKCLIRLKPTLHGPTPLLYRLGAVQNEVTLTHPITKYIMACMSADLEVVT
chain 2: STWVLVGGVLAALAAYCLTTGSVVIVGRIILSGRPAIVPDRELLYQEFDEMEEC

Legend:
[1] = biological target: Biotin-DTEDVVAC …-pY (streptavidin-tagged peptide) (Hepatitis C virus); assay: SPR (BIAcore); 4G10 amine-coupled to the chip, streptavidin-tagged phosphotyrosine peptide injected, regeneration with 2 M MgCl2
NS3 = NS3 (Hepatitis C virus genotype 1b, UniProt P26663); details: read-out: affinity for NS3 in solution; cited from earlier work
[2] = biological target: T1, 5A/5B (P8P8') substrate DTEDVVCC*SMSYTWTG-K
T1 chain: DTEDVVCCSMYTWTGK

[3] = tested on: 5A/5B (P8P8′) substrate DTEDVVCC*SMSYTWTG-K; assay: Proteolytic activity by 1D-HPLC (reverse-phase) with 5A/5B substrate; assay type: biochemical, HCV Japanese (1b/BK) strain; details: for Km / kcat: 5A/5B substrate, room temperature, 60 min, footnote a for His-NS31-181 + NS4A Peptide: [E] = 0.25 μM, [NS4A Peptide] = 10 μM
Protocol: Following expression and purification, newly engineered recombinant species were assayed for proteolytic activity utilizing a 1D-HPLC (reverse-phase chromatography) technique. Assays were conducted using the 5A/5B (P8P8′) substrate DTEDVVCC*SMSYTWTG-K (SEQ ID NO: 25) in 25 mM Tris-HCl pH 7.5, 150 mM NaCl, 0.5 mM EDTA, 10 mM DTT, 10% glycerol, and 0.05% lauryl maltoside. Concentration of all proteins were determined by BIORAD dye method). […] Reactions were incubated at room temperature for 60 minutes and were quenched with an equal volume of 10% phosphoric acid. Following injection, cleavage products were monitored under a linear 0-80% acetonitrile gradient in 0.1% TFA. The product P1′P8′K peak areas were automatically converted to product quantity in nanomoles by a standard curve.
The various covalent NS4A-NS3 complexes whose proteolytic efficiency has been determined according to the above method, and the results of each determination, are shown in Table 1.

[4] = Solubility judged by achievable concentration of the complex; assay type: physicochemical
Excerpt: Thirteen representative embodiments of such mutant NS4A-NS3 complexes are disclosed in the Examples below. In some embodiments, the isoleucine at position 17 is mutated to lysine. One such mutant form is referred to as His-NS4A21-32-GSGS-NS33-181/I17K (SEQ ID NO: 2). In other embodiments, the same mutation is made at position 18. One such mutant form is referred to as His-NS4A21-32-GSGS-NS33-181/I18K (SEQ ID NO: 3). In yet other embodiments, the mutations are introduced at both positions. One such mutant is referred to as His-NS4A21-32-GSGS-NS33-181/I17K,I18K (SEQ ID NO: 4).
A “soluble” covalent complex as referred to herein is defined as a protein which will remain in solution after a high spin centrifugation step at 300,000×g in a standard ultracentrifuge in a buffer containing 25 mM HEPES, pH 7.6, 10% glycerol, 0.3 M NaCl, 10 mM βME.

[5] = Size exclusion chromatography (aggregated vs monodispersed form); assay type: physicochemical; details: for period for which the complex remains monodispersed: 4° C.
Protocol: Two hundred μl of various purified proteins were applied to a calibrated Superdex-75 HR (1 cm×30 cm) FPLC column equilibrated with 25 mM HEPES, pH 7.4, 1M NaCl and 10% glycerol and 10 mM βME at 0.5 ml/min. The column was precalibrated using Pharmacia standard calibration proteins (BSA: 67 KDa; Ovalbumin: 43 KDa; Chymotrypsinogen A: 31 KDa; Ribonuclease A: 13.7 KDa). Protein elution was monitored at 280 nm.

[6] = biological target: T2, His-NS31-181 (NS3 catalytic domain) (Hepatitis C virus (1b/BK strain), UniProt Q9WMX2 1027-1206); assay: cell-based or functional assay
T2 chain: B1 chain 1

Row | Molecule | Km [2] [µM] | kcat [2] [s⁻¹] | kcat/Km [2] [M⁻¹ s⁻¹] | kinetic properties compared with wild type [3] | achievable concentration of the complex (solubility) [4] [mg/mL] | dispersion state as judged by size exclusion chromatography [5] | period for which the complex remains monodispersed [5] | also measured
1 | Anti-phosphotyrosine monoclonal antibody 4G10 (Upstate Biotechnology Inc.) | – | – | – | – | – | – | – | % binding of tagged peptide after regeneration [1]: 100%
2 | NS4A peptide: 13-19 residue NS4A peptide spanning the central hydrophobic domain of the full-length NS4A protein (KKGSVVIVGRIVLSGKPAIIPKK) | – | – | – | – | – | – | – | Kd (NS3): 10 µM
3 | B1 | 80 | 0.05 | 500 | – | – | – | – | –
4 | B2 | 20 | 0.267 | 14000 | identical to those of the wild type | 17 to 20 | monodispersed | about one week | Km [3]: 20 ± 2 µM; kcat [3]: 0.267 ± 0.05 s⁻¹
5 | B3 | – | – | – | identical to those of the wild type | 17 to 20 | monodispersed | about one week | –
6 | B4 | 22 | 0.167 | 8000 | identical to those of the wild type | 17 to 20 | monodispersed | about one week | Km [3]: 22 ± 2 µM; kcat [3]: 0.167 ± 0.033 s⁻¹
7 | B5 | 19 | 0.15 | 8000 | – | – | – | – | –
8 | B6 | 20 | 0.167 | 8000 | – | – | – | – | –
9 | KKGSVVIVGRIVLSGKPAIIPKK [4A peptide KKGSVVIVGRIVLSGKPAIIPKK] | – | – | – | – | – | – | – | catalytic activity relative to full-length NS31-631-NS4A1-54 [6]: 8 fold lower
